Measurements reported in patent US8546353B2, “Compounds and combinations” (priority 2010, dated 2013).
Entries after “also recorded” stand apart in the source; their conditions may differ.

Key:
[1] = tested on: spleen; experiment: Spleen weights after mobilization studies; format: in vivo; conditions: 25 μg s.c.
Description: (§1) Adult (8-10 weeks) female, age-matched C57BL/6J (Jackson stock nr 000664, the Charles River Laboratories) CD45.2 mice were used in the in vivo mobilization experiments. The acclimatization period was always at least 7 days before the experiments. The animals were individually identified by ear and tail numbering and were housed in a Scantainer (Scanbur A/S, Karlslunde, Denmark) in Makrolon III cages. The animal room temperature was 21±2° C. and humidity was between 40-60%. Lightning was artificial, 12 h light and 12 h dark. The mice were provided with irradiated fodder and normal tap water ad libitum. Average weight of all animals in the experiments was 18.8±1.5 g. No formal randomization or grouping was done. Animals were randomly allocated to the study groups. All animals were weighed before the first dosing and in the end of each study.
Sterile filtered PBS (pH 7.2) served as vehicle in all studies and was injected intravenously in the tail vein in similar volumes (50 or 100 μl) and time-points as the other test items within each study. Recombinant pegylated granulocyte-colony stimulatory factor (G-CSF), pegfilgrastim (Neulasta™, Amgen), with the stock concentration 10 mg/ml, was diluted immediately before the injections in sterile filtered PBS (pH 7.2) to yield a 0.25-0.5 mg/ml dosing solution. […]

[2] = tested on: hematopoietic cell populations of mouse peripheral blood; experiment: Immunophenotypic profiling of peripheral blood by flow cytometry; format: in vivo, C57BL/6J mice; conditions: pegfilgrastim 25 μg s.c. −5 days
Description: as §1
(§2) Sterile filtered PBS (pH 7.2) served as vehicle in all studies and was injected intravenously in the tail vein in similar volumes (50 or 100 μl) and time-points as the other test items within each study. Recombinant pegylated granulocyte-colony stimulatory factor (G-CSF), pegfilgrastim (Neulasta™, Amgen), with the stock concentration 10 mg/ml, was diluted immediately before the injections in sterile filtered PBS (pH 7.2) to yield a 0.25-0.5 mg/ml dosing solution. The animals obtained 25 μg pegfilgrastim (Neulasta™) subcutaneously at a dose volume of 50 or 100 μl on study day 0. The LMW hyaluronic acid derivatives HA and 6-O-S HA were prepared for injections into sterile filtered PBS in 5-10 mg/ml solutions and injected intravenously in the tail vein in dose volumes of 50 or 100 μl yielding 500 μg doses/mouse.
The LMW hyaluronic acid (HA) derivatives were tested for capability to mobilize hematopoietic stem and progenitor cells to peripheral blood after 500 μg i.v. injections at the following time-points: 4h, 1d, 2d, 3d and 5d post-injections. Repetitive dosing was tested with daily 500 μg i.v. injections and sampling was done either on experimental days 2 (after 3 doses) or 5 (after 6 doses) after the first injection on day 0. Abnormal clinical signs or mortality was not observed with the LMW HA derivatives with 500 μg doses. The LMW HA derivatives were also tested in combination with a single dose of pegfilgrastim (Neulasta™). In combinatorial G-CSF+LMW HA studies, pegfilgrastim was always injected s.c. at experimental day 0 and the LMW HA derivatives were administered i.v. as • a) single doses of 500 μg at experimental day 3, • b) single doses of 500 μg 1 or 4 hours before sampling, or • c) as repetitive doses of 500 μg daily from experimental day 0-5 (in total 6 doses).
Flow cytometric analysis was performed on FACSAria (Becton Dickinson Biosciences) with a 488-nm argon laser for (PE, FITC and PE-Cy7), a 633-nm hene laser for (APC and APC-Cy7). Fluorescense was measured using 530/30-nm (FITC), 585/42-nm (PE), 780/60-nm (PE-Cy7), 660/20-nm (APC) and 780/60 (APC-Cy7) bandpass filters.
Peripheral mouse blood was diluted 1:5 in 0.9% NaCl (Baxter). Fluorescence labels (ebiosciences, except APC-CD45 BD Biosciences): 0.04 μg phycoerythrin (PE)-conjugated CD11c (dendritic cells; clone N418; cat#12-0114), fluorescein isothiocyanate (FITC)-conjugated 0.3 μg TER-119 (erythroid cells; clone TER-119; cat#11-5921), 0.1 allophycocyanin (APC)-conjugated CD314 (natural killer cells; clone CX5; 17-5882), 0.08 μg APC-Cyanine 7 (Cy7)-conjugated CD3e (T cells; clone 17A2; cat#27.0032) and 0.04 μg PE-Cy7 conjugated CD45R (B cells; RA3-6B2; 25-0452) were combined in one tube and 0.08 μg PE-conjugated CD115 (for monocytes and macrophages; clone AFS98; cat#12-1152), 0.2 μg FITC-conjugated-CD41 (megakaryocytes and hematopoietic progenitors; clone MWReg30; cat#11-0411), 0.08 μg APC-conjugated CD45 (leukocytes; clone 30-F11; cat#559864) and 0.03 μg PE-Cy7-conjugated LY-6G (neutrophils; clone RB6-8C5; cat#25-5931) were combined in another tube, incubated for 30 minutes on ice protected from light. […]

[3] = tested on: white blood cell (WBC) contents in peripheral blood; experiment: Leukocyte content in blood, automated blood cell counter Sysmex XT-2000i; format: in vivo, C57BL/6J mice; conditions: single dose (HA derivatives 500 μg i.v.; pegfilgrastim 25 μg s.c.); 5 days (FIG. 2C)
Description: as §1
(§3) Sterile filtered PBS (pH 7.2) served as vehicle in all studies and was injected intravenously in the tail vein in similar volumes (50 or 100 μl) and time-points as the other test items within each study. […]
(§4) The leukocyte, erythrocyte and platelet contents were determined for all blood samples by automated blood cell counter Sysmex XT-2000i by diluting the mouse blood 1:4 with 0.9% NaCl.
(§5) Complete blood counts (numbers of white blood cells, mature red blood cells and platelets) of mouse peripheral blood were determined with automated blood cell counter.

[4] = tested on: SLAM+ cells (CD150+CD48−CD45+) in peripheral blood; experiment: SLAM immunophenotyping by flow cytometry; format: in vivo, C57BL/6J mice; conditions: pegfilgrastim 25 μg s.c. day 0; combination + single 500 μg i.v. one hour before sampling (FIG. 14)
Description: as §1, with “No formal randomization or grouping was done. Animals were randomly allocated to the study groups. All animals were weighed before the first dosing and in the end of each study.” left out
The enrichment of long-term repopulating (LTR) hematopoietic stem cells was detected with representation of SLAM markers. […] CD45+ cells expressing CD150, but not CD48 cell surface markers were determined as a population highly enriched with LTR hematopoietic stem cells.
Although mobilization of HPCs may be of use for short-term repopulation in clinical settings, long-term repopulation and reconstitution of the hematopoietic cell system in a transplant recipient demands the presence of mobilized long-term repopulating hematopoietic stem cells (LTR-HSCs). […] The presence of SLAM (CD150+CD48−CD45+) positive cells in mouse blood was determined by flow cytometry after vehicle, pegfilgrastim or pegfilgrastim +6-O-S LMW HA dosing. […]

[5] = tested on: hematopoietic progenitor cells (HPCs) in the bone marrow; experiment: CFU assay on bone marrow mononuclear cells; format: in vivo, C57BL/6J mice; conditions: single 25 μg s.c. at day 0, samples at day 5, 1×10^5 mononuclear cells
Description: as §1, with “All animals were weighed before the first dosing and in the end of each study.” left out
Myeloid hematopoietic progenitor cells were further enumerated by the colony forming unit (CFU/CFC) assay. Progenitor cells that are restricted in their lineage potential and that have limited self-renewal capability can be detected in colony-forming cell (CFC) assays using semisolid media such as methylcellulose, agar or collagen. Progenitors that read out in culture assays can either be multipotent, e.g. capable of generating progeny of multiple blood cell types, or restricted to one or two lineages, e.g. erythrocytes, granulocytes, monocyte/macrophages or platelets. […]

[6] = tested on: red blood cell (RBC) contents in peripheral blood; experiment: Erythrocyte content in blood, automated blood cell counter Sysmex XT-2000i; format: in vivo, C57BL/6J mice; conditions: 25 μg s.c.
Description: as §1, §3, §4, §5

[7] = tested on: circulating hematopoietic progenitor cells (HPCs) in peripheral blood; experiment: Peripheral blood stem cell mobilization, colony forming unit (CFU) assay on peripheral blood mononuclear cells; format: in vivo, C57BL/6J mice
Description: as §1, §2
The LMW hyaluronic acid (HA) derivatives were tested for capability to mobilize hematopoietic stem and progenitor cells to peripheral blood after 500 μg i.v. injections at the following time-points: 4h, 1d, 2d, 3d and 5d post-injections. Repetitive dosing was tested with daily 500 μg i.v. injections and sampling was done either on experimental days 2 (after 3 doses) or 5 (after 6 doses) after the first injection on day 0. Abnormal clinical signs or mortality was not observed with the LMW HA derivatives with 500 μg doses. […]
Mononuclear cells were isolated by carefully overlaying 3 ml Ficoll-Paque® (GE Healthcare) with peripheral blood diluted 1:2 in phosphate buffered saline (PBS)-2 mM EDTA. […] Mononuclear cell yields were counted using a Bürker chamber.
Myeloid hematopoietic progenitor cells were further enumerated by the colony forming unit (CFU/CFC) assay. Progenitor cells that are restricted in their lineage potential and that have limited self-renewal capability can be detected in colony-forming cell (CFC) assays using semisolid media such as methylcellulose, agar or collagen. […]

B1: pegfilgrastim (protein, chains of the INN, looked up)
chain: TPLGPASSLPQSFLLKCLEQVRKIQGDGAALQEKLCATYKLCHPEELVLLGHSLGIPWAPLSSCPSQALQLAGCLSQLHSGLFLYQGLLQALEGISPELGPTLDTLQLDVADFATTIWQQMEELGMAPALQPTQGAMPAFASAFQRRAGGVLVASHLQSFLEVSYRVLRHLAQP
modifications: N-terminal methionine, PEG
spleen swelling 3 days after single s.c. injection ([1]; 3 days (FIG. 8A left panel)): evident
spleen swelling two days after s.c. injection ([1]; two days): evident
levels of circulating monocytes, neutrophils and eosinophils (MNEs) as a pool ([2]; combination + 500 μg i.v. 1 hour before sampling (FIG. 11A), listed as G-CSF): robust increase; also recorded: dramatically increased
granulocytes within the MNEs ([2]; combination + 500 μg i.v. 1 hour before sampling (FIG. 11B)): proliferated
levels of monocytes and macrophages as a pool ([2]; combination + 500 μg i.v. 1 hour before sampling (FIG. 11C)): decreased
levels of CD45+CD115+ progenitors ([2]; combination + 500 μg i.v. 1 hour before sampling (FIG. 12A)): increased
levels of CD45+CD41+ progenitors ([2]; combination + 500 μg i.v. 1 hour before sampling (FIG. 12B)): decreased from control levels
levels of Ter-119+ proerythroblasts ([2]; combination + 500 μg i.v. 1 hour before sampling (FIG. 12C)): decrease
levels of megakaryocytes and platelets ([2]; combination + 500 μg i.v. 1 hour before sampling (FIG. 12D)): decreased levels of megakaryocytes and platelets
levels of peripheral blood lymphocytes ([2]; combination + 500 μg i.v. 1 hour before sampling (FIG. 13A)): increased
CD3+ T-cells within the lymphocyte population ([2]; combination + 500 μg i.v. 1 hour before sampling (FIG. 13B)): increase
NK (CD314+) cell levels ([2]; combination + 500 μg i.v. 1 hour before sampling (FIG. 13C)): remained unaltered
CD45R+ B-cells within the lymphocyte population ([2]; combination + 500 μg i.v. 1 hour before sampling (FIG. 13D)): decrease
WBC counts 5 days after single dose [3]: remained high
levels of circulating SLAM+ cells (CD150+CD48−CD45+) [4]: dramatically increased
number of HPCs in the bone marrow, decrease [5]: over 2 fold
numbers of mature RBC 2 days after s.c. injection ([6]; 2 days): elevate the numbers of mature RBC
RBC elevation 5 days after s.c. injection ([6]; 5 days, occasionally seen (FIG. 4C)): normalize back to control levels
mean CFU colonies ([7]; Neulasta 25 μg s.c. day 0, sampling day 5, combination: 500 μg i.v. 1 hour before sampling (FIG. 10A)): 18.8 colonies/10^5 mononuclear cells
time of peak of HPC mobilization after s.c. injection ([7]; single 25 μg s.c.): 5 days
number of circulating HPCs in mouse peripheral blood, increase over background ([7]; single 25 μg s.c. at day 0, samples at day 5, CFU, 1×10^5 mononuclear cells): 40-50 fold
mobilization of circulating HPCs ([7]; single 25 μg s.c. injection (FIG. 9A)): robust mobilization of circulating HPCs
